Experimental data as given in US20070105771A1 (Y S THERAPEUTICS, published 2007).

Columns and labels:
Test in all cases: peptide microarray
[1] = biological target: T1, human CD26-derived 13 mer peptide 43 (human)
T1 peptide: YDIYDLNKRQLIT
Protocol: (§1) The overnight incubation was followed by three washings with each of PBS buffer pH 7.5 and water. The microarrays were then scanned using ArrayWorx-Microarray Scanner.
(§2) The SPOT recognition software package ArrayPro was used for data analysis. The mean of signal intensities from 3 identical subarrays on each microarray image was used for data evaluation.

[2] = biological target: T2, human CD26-derived 13 mer peptide 11 (human)
T2 peptide: YLYKQENNILVFN
Protocol: as §1, §2

[3] = biological target: T3, human CD26-derived 13 mer peptide 33 (human)
T3 peptide: QFILLEYNYVKQW
Protocol: as §1, §2

[4] = biological target: T4, human CD26-derived 13 mer peptide 80 (human)
T4 peptide: EVFSAYSALWWSP
Protocol: as §1, §2

[5] = biological target: T5, human CD26-derived 13 mer peptide 19 (human)
T5 peptide: GNSSVFLENSTFD
Protocol: as §1, §2

[6] = biological target: T6, human CD26-derived 13 mer peptide 130 (human)
T6 peptide: ATQERISLQWLRR
Protocol: as §1, §2

[7] = biological target: T7, human CD26-derived 13 mer peptide 17 (human)
T7 peptide: NAEYGNSSVFLEN
Protocol: as §1, §2

[8] = biological target: T8, human CD26-derived 13 mer peptide 38 (human)
T8 peptide: KQWRHSYTASYDI
Protocol: as §1, §2

[9] = biological target: T9, human CD26-derived 13 mer peptide 3 (human)
T9 peptide: TYRLKLYSLRWIS
Protocol: as §1, §2

[10] = biological target: T10, human CD26-derived 13 mer peptide 83 (human)
T10 peptide: SALWWSPNGTFLA
Protocol: as §1, §2

[11] = biological target: T11, human CD26-derived 13 mer peptide 100 (human)
T11 peptide: LQYPKTVRVPYPK
Protocol: as §1, §2

[12] = biological target: T12, human CD26-derived 13 mer peptide 88 (human)
T12 peptide: FLAYAQFNDTEVP
Protocol: as §1, §2

[13] = biological target: T13, human CD26-derived 13 mer peptide 102 (human)
T13 peptide: KTVRVPYPKAGAV
Protocol: as §1, §2

[14] = biological target: T14, human CD26-derived 13 mer peptide 10 (human)
T14 peptide: HEYLYKQENNILV
Protocol: as §1, §2

[15] = biological target: T15, human CD26-derived 13 mer peptide 21 (human)
T15 peptide: VFLENSTFDEFGH
Protocol: as §1, §2

[16] = biological target: T16, human CD26-derived 13 mer peptide 87 (human)
T16 peptide: GTFLAYAQFNDTE
Protocol: as §1, §2

[17] = biological target: T17, human CD26-derived 13 mer peptide 25 (human)
T17 peptide: DEFGHSINDYSIS
Protocol: as §1, §2

[18] = biological target: T18, human CD26-derived 13 mer peptide 12 (human)
T18 peptide: YKQENNILVFNAE
Protocol: as §1, §2

[19] = biological target: T19, human CD26-derived 13 mer peptide 126 (human)
T19 peptide: HYLCDVTWATQER
Protocol: as §1, §2

[20] = biological target: T20, human CD26-derived 13 mer peptide 127 (human)
T20 peptide: LCDVTWATQERIS
Protocol: as §1, §2

[21] = biological target: T21, human CD26-derived 13 mer peptide 46 (human)
T21 construct: also called NKRQL1TEERIPN
T21 peptide: NKRQLITEERIPN
Protocol: as §1, §2

[22] = biological target: T22, human CD26-derived 13 mer peptide 81 (human)
T22 peptide: FSAYSALWWSPNG
Protocol: as §1, §2

[23] = biological target: T23, human CD26-derived 13 mer peptide 109 (human)
T23 peptide: PTVKFFVVNTDSL
Protocol: as §1, §2

[24] = biological target: T24, human CD26-derived 13 mer peptide 55 (human)
T24 peptide: TWSPVGHKLAYVW
Protocol: as §1, §2

[25] = biological target: T25, human CD26-derived 13 mer peptide 113 (human)
T25 peptide: NTDSLSSVTNATS
Protocol: as §1, §2

[26] = biological target: T26, human CD26-derived 13 mer peptide 1 (human)
T26 peptide: YLKNTYRLKLYSL
Protocol: as §1, §2

[27] = biological target: T27, human CD26-derived 13 mer peptide 128 (human)
T27 peptide: DVTWATQERISLQ
Protocol: as §1, §2

[28] = biological target: T28, human CD26-derived 13 mer peptide 129 (human)
T28 peptide: TWATQERISLQWL
Protocol: as §1, §2

[29] = biological target: T29, human CD26-derived 13 mer peptide 32 (human)
T29 peptide: DGQFILLEYNYVK
Protocol: as §1, §2

[30] = biological target: T30, human CD26-derived 13 mer peptide 71 (human)
T30 peptide: TGKEDIIYNGITD
Protocol: as §1, §2

[31] = biological target: T31, human CD26-derived 13 mer peptide 103 (human)
T31 peptide: VRVPYPKAGAVNP
Protocol: as §1, §2

[32] = biological target: T32, human CD26-derived 13 mer peptide 18 (human)
T32 peptide: EYGNSSVFLENST
Protocol: as §1, §2

[33] = biological target: T33, human CD26-derived 13 mer peptide 122 (human)
T33 peptide: PASMLIGDHYLCD
Protocol: as §1, §2

[34] = biological target: T34, human CD26-derived 13 mer peptide 45 (human)
T34 peptide: DLNKRQLITEERI
Protocol: as §1, §2

[35] = biological target: T35, human CD26-derived 13 mer peptide 7 (human)
T35 peptide: LRWISDHEYLYKQ
Protocol: as §1, §2

[36] = biological target: T36, human CD26-derived 13 mer peptide 84 (human)
T36 peptide: LWWSPNGTFLAYA
Protocol: as §1, §2

[37] = biological target: T37, human CD26-derived 13 mer peptide 98 (human)
T37 peptide: SDESLQYPKTVRV
Protocol: as §1, §2

[38] = biological target: T38, human CD26-derived 13 mer peptide 24 (human)
T38 peptide: TFDEFGHSINDYS
Protocol: as §1, §2

[39] = biological target: T39, human CD26-derived 13 mer peptide 58 (human)
T39 peptide: HKLAYVWNNDIYV
Protocol: as §1, §2

[40] = biological target: T40, human CD26-derived 13 mer peptide 5 (human)
T40 peptide: KLYSLRWISDHEY
Protocol: as §1, §2

[41] = biological target: T41, human CD26-derived 13 mer peptide 89 (human)
T41 peptide: AYAQFNDTEVPLI
Protocol: as §1, §2

[42] = biological target: T42, human CD26-derived 13 mer peptide 85 (human)
T42 peptide: WSPNGTFLAYAQF
Protocol: as §1, §2

Mean Signal Value [1]: 0
Mean Signal Value [2]: 5.78
Mean Signal Value [3]: 21.8
Mean Signal Value [4]: 17.7
Mean Signal Value [5]: 0
Mean Signal Value [6]: 4.3
Mean Signal Value [7]: 0.0625
Mean Signal Value [8]: 4.77
Mean Signal Value [9]: 0.726
Mean Signal Value [10]: 3.64
Mean Signal Value [11]: 0.00962
Mean Signal Value [12]: 0
Mean Signal Value [13]: 0.0192
Mean Signal Value [14]: 0.0192
Mean Signal Value [15]: 0.197
Mean Signal Value [16]: 0.0288
Mean Signal Value [17]: 0
Mean Signal Value [18]: 0
Mean Signal Value [19]: 0.0337
Mean Signal Value [20]: 0.00962
Mean Signal Value [21]: 0
Mean Signal Value [22]: 35.4
Mean Signal Value [23]: 0
Mean Signal Value [24]: 124
Mean Signal Value [25]: 0.0288
Mean Signal Value [26]: 3.5
Mean Signal Value [27]: 0.106
Mean Signal Value [28]: 23.3
Mean Signal Value [29]: 0.0192
Mean Signal Value [30]: 0
Mean Signal Value [31]: 0
Mean Signal Value [32]: 0
Mean Signal Value [33]: 0.308
Mean Signal Value [34]: 0
Mean Signal Value [35]: 20.6
Mean Signal Value [36]: 17.2
Mean Signal Value [37]: 0.00481
Mean Signal Value [38]: 0.00962
Mean Signal Value [39]: 33.8
Mean Signal Value [40]: 43.1
Mean Signal Value [41]: 0
Mean Signal Value [42]: 1.02
B1: rhuMAb 411 (antibody, human IgG1, kappa, V domains shown)
VH: EVQLVESGAGVKQPGGTLRLTCTASGFSLTTYGVHWVRQAPGKGLEWVGVIWGDGRTDYDAAFMSRVTISKDTSKSTVYLQMNSLRAEDTAVYYCMRNRHDWFDYWGQGTTVTVSS
VL: DILLTQSPSSLSATPGERATITCRASQGIRNNLNWYQQKPGQAPRLLIYYSSNLQSGVPSRFSGSGSGTDFTLTISRLQPEDVAAYYCQQSIKLPFTFGSGTKVEIKR
notes: also called X411
